In experiment [1] the target is human glucagon-like peptide 1 receptor (GLP-1R) (human, UniProt P43220 24-463). The experiment in a line: cell-based or functional assay.
Experiment [2] has as its target human glucagon receptor (Glucagon-R) (human, UniProt P47871 26-477). The experiment in a line: cell-based or functional assay.

Numbered stars: 1 amine (or outer) side, 2 acyl side, 3 side chain; on linkers, the order of the positions; unused ones are H or OH. Bridge positions count the residues as written; N and C are the ends. Square brackets hold non-standard residues; d marks the D form. Side chains are listed from the residue outwards. * marks the point of attachment. γGlu = O=C(O)[C@H](CCC(=O)[*:2])N[*:1]; εLys = N[C@@H](CCCCN[*:1])C(=O)[*:2]; Palmitoyl = CCCCCCCCCCCCCCCC(=O)*; Lauroyl = CCCCCCCCCCCC(=O)*; Aib = CC(C)(N)C(=O)O; Aoc = NCCCCCCCC(=O)O

human glucagon receptor (Glucagon-R), sequence (P47871 26-477): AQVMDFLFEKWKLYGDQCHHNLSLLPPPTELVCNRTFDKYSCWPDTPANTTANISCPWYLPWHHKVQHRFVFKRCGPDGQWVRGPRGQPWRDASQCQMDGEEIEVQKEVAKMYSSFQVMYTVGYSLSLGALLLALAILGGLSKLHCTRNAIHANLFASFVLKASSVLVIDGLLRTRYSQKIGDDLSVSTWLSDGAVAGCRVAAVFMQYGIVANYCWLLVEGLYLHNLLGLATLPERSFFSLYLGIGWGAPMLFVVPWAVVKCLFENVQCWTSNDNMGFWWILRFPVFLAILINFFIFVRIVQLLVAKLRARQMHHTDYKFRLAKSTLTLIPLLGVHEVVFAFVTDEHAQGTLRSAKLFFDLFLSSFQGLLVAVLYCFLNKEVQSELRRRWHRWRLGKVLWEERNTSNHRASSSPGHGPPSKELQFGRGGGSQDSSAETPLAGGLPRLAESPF

B1: Compound 209 (peptide)
peptide: H-H[Aib]QGTFTSDYSKYLDSKAAHDFVEWLLK([γGlu-Palmitoyl])A-NH2
SMILES: CCCCCCCCCCCCCCCC(=O)N[C@@H](CCC(=O)NCCCC[C@H](NC(=O)[C@H](CC(C)C)NC(=O)[C@H](CC(C)C)NC(=O)[C@H](Cc1c[nH]c2ccccc12)NC(=O)[C@H](CCC(=O)O)NC(=O)[C@@H](NC(=O)[C@H](Cc1ccccc1)NC(=O)[C@H](CC(=O)O)NC(=O)[C@H](Cc1c[nH]cn1)NC(=O)[C@H](C)NC(=O)[C@H](C)NC(=O)[C@H](CCCCN)NC(=O)[C@H](CO)NC(=O)[C@H](CC(=O)O)NC(=O)[C@H](CC(C)C)NC(=O)[C@H](Cc1ccc(O)cc1)NC(=O)[C@H](CCCCN)NC(=O)[C@H](CO)NC(=O)[C@H](Cc1ccc(O)cc1)NC(=O)[C@H](CC(=O)O)NC(=O)[C@H](CO)NC(=O)[C@@H](NC(=O)[C@H](Cc1ccccc1)NC(=O)[C@@H](NC(=O)CNC(=O)[C@H](CCC(N)=O)NC(=O)C(C)(C)NC(=O)[C@@H](N)Cc1c[nH]cn1)[C@@H](C)O)[C@@H](C)O)C(C)C)C(=O)N[C@@H](C)C(N)=O)C(=O)O
For the molecule B1, the “EC50 (nM) GLP-1R; cAMP content, HEK293 cells expressing human GLP-1R” value (“EC50 (nM) GLP-1R; cAMP content” for short) in experiment [1] was 0.27 nM. Further, in experiment [2], the “EC50 (nM) GuR; cAMP content, HEK293 cells expressing the human glucagon receptor” value (shortened to “EC50 (nM) GuR; cAMP content”) worked out at 0.27 nM.

B2: Compound 213 (peptide)
peptide: H-H[Aib]QGTFTSDYSKYLDSKAAK([γGlu-Palmitoyl])DFVAWLLRA-NH2
SMILES: CCCCCCCCCCCCCCCC(=O)N[C@@H](CCC(=O)NCCCC[C@H](NC(=O)[C@H](C)NC(=O)[C@H](C)NC(=O)[C@H](CCCCN)NC(=O)[C@H](CO)NC(=O)[C@H](CC(=O)O)NC(=O)[C@H](CC(C)C)NC(=O)[C@H](Cc1ccc(O)cc1)NC(=O)[C@H](CCCCN)NC(=O)[C@H](CO)NC(=O)[C@H](Cc1ccc(O)cc1)NC(=O)[C@H](CC(=O)O)NC(=O)[C@H](CO)NC(=O)[C@@H](NC(=O)[C@H](Cc1ccccc1)NC(=O)[C@@H](NC(=O)CNC(=O)[C@H](CCC(N)=O)NC(=O)C(C)(C)NC(=O)[C@@H](N)Cc1c[nH]cn1)[C@@H](C)O)[C@@H](C)O)C(=O)N[C@@H](CC(=O)O)C(=O)N[C@@H](Cc1ccccc1)C(=O)N[C@H](C(=O)N[C@@H](C)C(=O)N[C@@H](Cc1c[nH]c2ccccc12)C(=O)N[C@@H](CC(C)C)C(=O)N[C@@H](CC(C)C)C(=O)N[C@@H](CCCNC(=N)N)C(=O)N[C@@H](C)C(N)=O)C(C)C)C(=O)O
With B2, the “EC50 (nM) GLP-1R; cAMP content” value in experiment [1] worked out at 0.15 nM. Also, the “EC50 (nM) GuR; cAMP content” value in experiment [2] was found to be 0.63 nM.

B3: Compound 217 (peptide)
peptide: H-H[Aib]QGTFTSDYSKYLDSK([εLys-Palmitoyl])AAHDFVEWLLSA-NH2
SMILES: CCCCCCCCCCCCCCCC(=O)NCCCC[C@H](N)C(=O)NCCCC[C@H](NC(=O)[C@H](CO)NC(=O)[C@H](CC(=O)O)NC(=O)[C@H](CC(C)C)NC(=O)[C@H](Cc1ccc(O)cc1)NC(=O)[C@H](CCCCN)NC(=O)[C@H](CO)NC(=O)[C@H](Cc1ccc(O)cc1)NC(=O)[C@H](CC(=O)O)NC(=O)[C@H](CO)NC(=O)[C@@H](NC(=O)[C@H](Cc1ccccc1)NC(=O)[C@@H](NC(=O)CNC(=O)[C@H](CCC(N)=O)NC(=O)C(C)(C)NC(=O)[C@@H](N)Cc1c[nH]cn1)[C@@H](C)O)[C@@H](C)O)C(=O)N[C@@H](C)C(=O)N[C@@H](C)C(=O)N[C@@H](Cc1c[nH]cn1)C(=O)N[C@@H](CC(=O)O)C(=O)N[C@@H](Cc1ccccc1)C(=O)N[C@H](C(=O)N[C@@H](CCC(=O)O)C(=O)N[C@@H](Cc1c[nH]c2ccccc12)C(=O)N[C@@H](CC(C)C)C(=O)N[C@@H](CC(C)C)C(=O)N[C@@H](CO)C(=O)N[C@@H](C)C(N)=O)C(C)C
For B3, the “EC50 (nM) GLP-1R; cAMP content” value in experiment [1] stood at 0.09 nM. In experiment [2], the “EC50 (nM) GuR; cAMP content” value came out at 0.39 nM.

B4: Compound 210 (peptide)
peptide: H-H[Aib]QGTFTSDYSKYLDSK([γGlu-Palmitoyl])AAHDFVEWLLKA-NH2
modifications: lactam 24-28
SMILES: CCCCCCCCCCCCCCCC(=O)N[C@@H](CCC(=O)NCCCC[C@H](NC(=O)[C@H](CO)NC(=O)[C@H](CC(=O)O)NC(=O)[C@H](CC(C)C)NC(=O)[C@H](Cc1ccc(O)cc1)NC(=O)[C@H](CCCCN)NC(=O)[C@H](CO)NC(=O)[C@H](Cc1ccc(O)cc1)NC(=O)[C@H](CC(=O)O)NC(=O)[C@H](CO)NC(=O)[C@@H](NC(=O)[C@H](Cc1ccccc1)NC(=O)[C@@H](NC(=O)CNC(=O)[C@H](CCC(N)=O)NC(=O)C(C)(C)NC(=O)[C@@H](N)Cc1c[nH]cn1)[C@@H](C)O)[C@@H](C)O)C(=O)N[C@@H](C)C(=O)N[C@@H](C)C(=O)N[C@@H](Cc1c[nH]cn1)C(=O)N[C@@H](CC(=O)O)C(=O)N[C@@H](Cc1ccccc1)C(=O)N[C@H](C(=O)N[C@H]1CCC(=O)NCCCC[C@@H](C(=O)N[C@@H](C)C(N)=O)NC(=O)[C@H](CC(C)C)NC(=O)[C@H](CC(C)C)NC(=O)[C@H](Cc2c[nH]c3ccccc23)NC1=O)C(C)C)C(=O)O
B4: in experiment [1], the “EC50 (nM) GLP-1R; cAMP content” value is 0.08 nM. In addition, in experiment [2], the “EC50 (nM) GuR; cAMP content” value stood at 0.26 nM.

B5: Compound 214 (peptide)
peptide: H-H[Aib]QGTFTSDYSKYLDSK([γGlu-Lauroyl])AAHDFVEWLLSA-NH2
SMILES: CCCCCCCCCCCC(=O)N[C@@H](CCC(=O)NCCCC[C@H](NC(=O)[C@H](CO)NC(=O)[C@H](CC(=O)O)NC(=O)[C@H](CC(C)C)NC(=O)[C@H](Cc1ccc(O)cc1)NC(=O)[C@H](CCCCN)NC(=O)[C@H](CO)NC(=O)[C@H](Cc1ccc(O)cc1)NC(=O)[C@H](CC(=O)O)NC(=O)[C@H](CO)NC(=O)[C@@H](NC(=O)[C@H](Cc1ccccc1)NC(=O)[C@@H](NC(=O)CNC(=O)[C@H](CCC(N)=O)NC(=O)C(C)(C)NC(=O)[C@@H](N)Cc1c[nH]cn1)[C@@H](C)O)[C@@H](C)O)C(=O)N[C@@H](C)C(=O)N[C@@H](C)C(=O)N[C@@H](Cc1c[nH]cn1)C(=O)N[C@@H](CC(=O)O)C(=O)N[C@@H](Cc1ccccc1)C(=O)N[C@H](C(=O)N[C@@H](CCC(=O)O)C(=O)N[C@@H](Cc1c[nH]c2ccccc12)C(=O)N[C@@H](CC(C)C)C(=O)N[C@@H](CC(C)C)C(=O)N[C@@H](CO)C(=O)N[C@@H](C)C(N)=O)C(C)C)C(=O)O
Take B5: the “EC50 (nM) GLP-1R; cAMP content” value in experiment [1] stood at 0.14 nM. Besides, in experiment [2], the “EC50 (nM) GuR; cAMP content” value came to 0.78 nM.

B6: Compound 216 (peptide)
peptide: H-H[Aib]QGTFTSDYSKYLDSK([Aoc-Palmitoyl])AAHDFVEWLLSA-NH2
SMILES: CCCCCCCCCCCCCCCC(=O)NCCCCCCCC(=O)NCCCC[C@H](NC(=O)[C@H](CO)NC(=O)[C@H](CC(=O)O)NC(=O)[C@H](CC(C)C)NC(=O)[C@H](Cc1ccc(O)cc1)NC(=O)[C@H](CCCCN)NC(=O)[C@H](CO)NC(=O)[C@H](Cc1ccc(O)cc1)NC(=O)[C@H](CC(=O)O)NC(=O)[C@H](CO)NC(=O)[C@@H](NC(=O)[C@H](Cc1ccccc1)NC(=O)[C@@H](NC(=O)CNC(=O)[C@H](CCC(N)=O)NC(=O)C(C)(C)NC(=O)[C@@H](N)Cc1c[nH]cn1)[C@@H](C)O)[C@@H](C)O)C(=O)N[C@@H](C)C(=O)N[C@@H](C)C(=O)N[C@@H](Cc1c[nH]cn1)C(=O)N[C@@H](CC(=O)O)C(=O)N[C@@H](Cc1ccccc1)C(=O)N[C@H](C(=O)N[C@@H](CCC(=O)O)C(=O)N[C@@H](Cc1c[nH]c2ccccc12)C(=O)N[C@@H](CC(C)C)C(=O)N[C@@H](CC(C)C)C(=O)N[C@@H](CO)C(=O)N[C@@H](C)C(N)=O)C(C)C
As to B6, the “EC50 (nM) GLP-1R; cAMP content” value in experiment [1] was determined as 0.24 nM. The “EC50 (nM) GuR; cAMP content” value in experiment [2] is 0.46 nM.

B7: Compound 206 (peptide)
peptide: H-H[Aib]QGTFTSDYSKYLDSK([γGlu-Palmitoyl])AAHDFVEWLLRA-NH2
SMILES: CCCCCCCCCCCCCCCC(=O)N[C@@H](CCC(=O)NCCCC[C@H](NC(=O)[C@H](CO)NC(=O)[C@H](CC(=O)O)NC(=O)[C@H](CC(C)C)NC(=O)[C@H](Cc1ccc(O)cc1)NC(=O)[C@H](CCCCN)NC(=O)[C@H](CO)NC(=O)[C@H](Cc1ccc(O)cc1)NC(=O)[C@H](CC(=O)O)NC(=O)[C@H](CO)NC(=O)[C@@H](NC(=O)[C@H](Cc1ccccc1)NC(=O)[C@@H](NC(=O)CNC(=O)[C@H](CCC(N)=O)NC(=O)C(C)(C)NC(=O)[C@@H](N)Cc1c[nH]cn1)[C@@H](C)O)[C@@H](C)O)C(=O)N[C@@H](C)C(=O)N[C@@H](C)C(=O)N[C@@H](Cc1c[nH]cn1)C(=O)N[C@@H](CC(=O)O)C(=O)N[C@@H](Cc1ccccc1)C(=O)N[C@H](C(=O)N[C@@H](CCC(=O)O)C(=O)N[C@@H](Cc1c[nH]c2ccccc12)C(=O)N[C@@H](CC(C)C)C(=O)N[C@@H](CC(C)C)C(=O)N[C@@H](CCCNC(=N)N)C(=O)N[C@@H](C)C(N)=O)C(C)C)C(=O)O
Take B7: the “EC50 (nM) GLP-1R; cAMP content” value in experiment [1] came to 0.09 nM. Also, the “EC50 (nM) GuR; cAMP content” value in experiment [2] was found to be 0.16 nM.
